B1: Hevamine-A (protein, listed as Hevea brasiliensis)
chain: MAKRTQAILLLLLAISLIMSSSHVDGGGIAIYWGQNGNEGTLTQTCSTRKYSYVNIAFLNKFGNGQTPQINLAGHCNPAAGGCTIVSNGIRSCQIQGIKVMLSLGGGIGSYTLASQADAKNVADYLWNNFLGGKSSSRPLGDAVLDGIDFDIEHGSTLYWDDLARYLSAYSKQGKKVYLTAAPQCPFPDRYLGTALNTGLFDYVWVQFYNNPPCQYSSGNINNIINSWNRWTTSINAGKIFLGLPAAPEAAGSGYVPPDVLISRILPEIKKSPKYGGVMLWSKFYDDKNGYSSSILDSVLFLHSEECMTVL
B2: Citrate-binding protein (protein, listed as Hevea brasiliensis)
chain: MKMKRSPYCFCCSFALLLLVSFLKDRHFCSADPTDGFTEVPLTEDNFVIQKPYDKPLNDRYSYKNGIRRLWVYENDKPFKVGSPTRPRTEIRIKGHDYSSGVWQFEGQVHVPEGTSGVTVMQVFGAVNKATALQLRVYNGDLKSYKSNSVATDIYNKWLRVNVIHKVGKGEITVFINGQQKLVVNDDGPAEHYFKCGVYAAPDGSSNYMESRWKNIKLYKSDNKLEGCNNNHGTWLVQ

Tested on: IgE antibody in the serum of a latex-allergic patient
Assay: Immunoblotting of two-dimensional electrophoresis gels of latex proteins with patient serum
Type: binding, human
Conditions: immunoblot of 2D electrophoresis gel of latex proteins, compared with serum of non-latex-allergic subject
Experimental: Identification of antigens by immunoblotting was carried out by taking all the steps up to the step of “Second-dimensional SDS-PAGE” as described above in Example 1, followed by the steps of “Transfer to membrane”, “Immunoblotting” and “Analysis” as described below.
Transfer system: XCell SureLock Mini-Cell and XCell II Blot Module (produced by Life Technologies) Transfer buffer: NuPAGE Transfer Buffer (X20) (produced by Life Technologies), used in a form diluted 200-fold with milliQ water.
Immunoblotting of the membrane was carried out using, as a primary antibody, a serum sample from a patient with a latex allergy or a serum sample from a non-latex-allergic subject.
(1) The transferred membrane was shaken in a 5% skim milk/PBST solution (a PBS buffer containing 0.1% Tween 20 nonionic surfactant) at room temperature for one hour. […]
The immunoblots obtained with the serum from the latex-allergic patient were compared with those obtained with the control serum from the non-latex-allergic subject. For protein present in latex, in immunoblotting using the serum from the latex-allergic patient, 2 spots were detected, which are different from the spots detected when the serum of the non-latex-allergic subject was used and different from those of the known latex allergen proteins. […]

Molecule | specific binding to IgE antibodies from allergic patients
B1 | specifically bind to IgE antibodies from allergic patients
B2 | specifically bind to IgE antibodies from allergic patients

From patent publication US20210231678A1, “ALLERGY ANTIGEN AND EPITOPE THEREOF” (FUJITA ACADEMY, priority 2020, published 2021)
